Paper PMC4865400

Columns and labels:
[1] = target: SH2 domain of ABL1 kinase fused to the 434 phage cI repressor (UniProt P00519); assay: two-hybrid
[2] = target: toxin-binding region from T. ni cadherin (TnCAD-FL) (Trichoplusia ni); assay: BLI

Substance | fold transcriptional activation [1] [fold] | Kd [2] [mM]
wild-type HA4 monobody fused to RpoZ (designed binder) | > 200 | 
wild-type Cry1Ac, trypsin-activated (from UniProt P05068 1-1178) (natural protein) |  | > 1
